According to patent US20120315703A1:

Molecular target: Lrh-1 (liver receptor homolog 1, Nr5a2) (mouse) (UniProt P45448)
Assay: cell-based or functional assay

UniProt P45448, sequence (P45448 whole entry): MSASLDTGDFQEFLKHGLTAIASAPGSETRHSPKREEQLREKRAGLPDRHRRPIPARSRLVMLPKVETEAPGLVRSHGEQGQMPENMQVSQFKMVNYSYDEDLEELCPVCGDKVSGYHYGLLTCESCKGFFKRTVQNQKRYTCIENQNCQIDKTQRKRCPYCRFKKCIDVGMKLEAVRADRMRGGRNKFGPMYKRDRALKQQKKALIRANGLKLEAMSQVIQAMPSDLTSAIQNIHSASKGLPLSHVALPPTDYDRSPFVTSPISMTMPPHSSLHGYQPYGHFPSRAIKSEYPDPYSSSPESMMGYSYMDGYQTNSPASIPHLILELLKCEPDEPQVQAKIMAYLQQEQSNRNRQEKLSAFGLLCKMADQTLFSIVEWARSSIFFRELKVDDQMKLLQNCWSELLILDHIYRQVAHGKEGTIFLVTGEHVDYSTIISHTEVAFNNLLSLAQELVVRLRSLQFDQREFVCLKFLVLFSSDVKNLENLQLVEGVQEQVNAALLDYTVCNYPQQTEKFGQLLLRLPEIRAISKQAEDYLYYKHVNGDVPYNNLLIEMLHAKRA

luciferase reporter expression (luciferase cassette linked to the Oct4 promoter), fold increase on co-expression: 4 to 5 fold
Substance: Rarg (retinoic acid receptor gamma), full-length (from UniProt P18911 1-458)
